Results from US20130274441A1 (University of California, published 2013).

How the values were obtained:
[1] = target: the molecule itself; test: Assembly column; screening of labeled lysates; self-assembly
Experimental: For fluorescence analysis, cells were lysed by sonication in 25 mM TRIS pH 7.5, 300 mM NaCl, 8.5 mM MgCl₂, 1 mM dithiothreitol (DTT) supplemented with 1 mM phenylmethanesulfonyl fluoride, and the lysates cleared by centrifugation. […] The labeling reaction was allowed to proceed at 37° C. for 30 min, after which the labeled lysates were analyzed by native PAGE or fluorescence SEC. […] Gels were imaged fluorescently using a Fotodyne gel imaging system equipped with appropriate LEDs and filters.

[2] = target: the molecule itself; test: Assembly column; self-assembly
[3] = target: the molecule itself; test: analytical SEC of purified protein; self-assembly
[4] = target: the molecule itself; test: analytical ultracentrifugation c(s) distribution at 4.8 and 2.4 mg mL^-1 (FIG. 4); self-assembly

B1: O3-33, construct with peptide tag for fluorescent labeling, in labeled E. coli lysate (designed binder)
chain: MSQAIGILELTSIAAGMELGDAMLKSANVDLLVSKTISPGKFLLMLGGDIGAIQQAIETGTSQAGELLVDSLVLANIHPSVLPAISGLNSVDKRQAVGIVETWSVAACISAADRAVKGSNVTLVRVHMAFGIGGKCYMVVAGDVSDVALAVTVASSSAGAYGLLVYASLIPRPHEAMWRQMVEG
modifications: peptide tag labeled with CoA-488 by AcpS
notes: also called octahedral design
binding result [1]: binds

B2: T3-10 with C-terminal (His)6 tag (designed binder)
chain: MTEKEKMLAEKWYDANFDQTLINERLRAKVICFALNHTNPVATMMRKVLIDALFQTTTDNVSISIPFDTDYGWNVKLGKNVYVNTNCYFMDGGQITIGDNVFIGPNCGFYTATHPLNFHHRNEGFEKAGPIHIGSNTWFGGHVAVLPGVTIGEGSVIGAGSVVTKDIPPHSLAVGNPCKVVRKIDNDLPSETLNDETIKLEHHHHHH
notes: Variant of T3-08 with 3 further mutations
binding result [2]: binds

B3: T3-08 with C-terminal (His)6 tag (designed binder)
chain: MTEKEKMLAEKWYDANFDQTLINERLRAKVICFALNHTNPSATLKRKVLIDALFQTTTDNVSISIPFDTDYGWNVKLGKNVYVNTNCYFMDGGQITIGDNVFIGPNCGFYTATHPLNFHHRNEGFEKAGPIHIGSNTWFGGHVAVLPGVTIGEGSVIGAGSVVTKDIPPHSLAVGNPCKVVRKIDNDLPSETLNDETIKLEHHHHHH
notes: four trimers assemble to a 12-subunit tetrahedral cage; Derived from PDB 3FTT with 8 mutations; also called tetrahedral design
binding result [3]: binds

B4: T3-08, construct with peptide tag for fluorescent labeling, in labeled E. coli lysate (designed binder)
chain: MTEKEKMLAEKWYDANFDQTLINERLRAKVICFALNHTNPSATLKRKVLIDALFQTTTDNVSISIPFDTDYGWNVKLGKNVYVNTNCYFMDGGQITIGDNVFIGPNCGFYTATHPLNFHHRNEGFEKAGPIHIGSNTWFGGHVAVLPGVTIGEGSVIGAGSVVTKDIPPHSLAVGNPCKVVRKIDNDLPSETLNDETIK
modifications: peptide tag labeled with CoA-488 by AcpS
notes: also called tetrahedral design
binding result [1]: binds

B5: O3-33 with C-terminal (His)6 tag (designed binder)
chain: MSQAIGILELTSIAAGMELGDAMLKSANVDLLVSKTISPGKFLLMLGGDIGAIQQAIETGTSQAGELLVDSLVLANIHPSVLPAISGLNSVDKRQAVGIVETWSVAACISAADRAVKGSNVTLVRVHMAFGIGGKCYMVVAGDVSDVALAVTVASSSAGAYGLLVYASLIPRPHEAMWRQMVEGLEHHHHHH
notes: eight trimers self-assemble through the designed interface to a 24-subunit octahedral cage; Derived from PDB 3N79 with 9 mutations; also called 03-33; octahedral design
binding result [4]: binds
